For 1 molecule, Kd and koff results are on record in patent publication US20140086835A1 (UNIVERSITY OF NORTH CAROLINA AT CHAPEL HILL, published 2014).

The Kd is the constant that tells how readily two partners part at equilibrium. As usually defined, the koff is the first-order rate constant of dissociation.

This experiment addresses T1, recombinant human PSMA (extracellular domain) (human, UniProt Q04609 44-750).
T1 construct: extracellular domain; Bought (R&D Systems); Amine-coupled to a CM5 chip; also called prostate specific membrane antigen
The experiment is described as follows: SPR (BIAcore 2000), PSMA on CM5 chip, 1:1 Langmuir fit. (In general: In SPR one partner is held on a chip, and binding of the other changes the refractive index at the surface.)

T1 sequence (Q04609 44-750): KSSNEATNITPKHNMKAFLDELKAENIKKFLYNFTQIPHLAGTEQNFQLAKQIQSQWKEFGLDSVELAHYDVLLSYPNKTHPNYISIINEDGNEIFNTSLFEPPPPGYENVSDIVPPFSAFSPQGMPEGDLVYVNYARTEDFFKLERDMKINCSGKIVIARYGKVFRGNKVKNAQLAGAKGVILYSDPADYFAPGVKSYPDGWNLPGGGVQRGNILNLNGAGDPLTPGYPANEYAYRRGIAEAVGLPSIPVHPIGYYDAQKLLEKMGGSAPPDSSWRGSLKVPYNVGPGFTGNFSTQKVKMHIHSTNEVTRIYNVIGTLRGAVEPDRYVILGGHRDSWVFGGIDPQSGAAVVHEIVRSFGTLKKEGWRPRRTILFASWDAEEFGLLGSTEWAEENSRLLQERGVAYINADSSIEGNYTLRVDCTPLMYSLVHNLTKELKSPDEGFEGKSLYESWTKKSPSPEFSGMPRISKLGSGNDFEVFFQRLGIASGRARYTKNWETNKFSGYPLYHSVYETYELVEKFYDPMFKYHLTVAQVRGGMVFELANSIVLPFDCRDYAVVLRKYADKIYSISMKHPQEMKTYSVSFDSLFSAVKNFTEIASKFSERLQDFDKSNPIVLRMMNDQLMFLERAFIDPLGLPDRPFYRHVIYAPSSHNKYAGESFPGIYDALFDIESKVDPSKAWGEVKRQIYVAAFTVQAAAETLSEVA

B1: heptameric PSMA-binding peptide targeting ligand (designed binder)
chain: MWQPDTAHHWATLGPQPQPKPQPKPEPEPQPQGGMPPRPLDVLNRSLKSPVIVRLKGGREFRGTLDGYDIHMNLVLLDAEEIQNGEVVRKVGSVVIRGDTVVFVSPAPGGEHHHHHH
notes: Self-assembled homoheptamer; also called PSMA-Heptamer; P^PSMA heptamer
As for B1, the equilibrium dissociation constant (Kd) came to 20 nM and the koff turned out to be 1.09e-06 s⁻¹.
